Tests used:
[1] = molecular target: TRIM variant expressed by HEK293T cells; assay: western blot, HEK293T lysate, antibody 1 ug/ml
[2] = molecular target: peptide 4 variant V364A expressed by HEK293T cells (human); assay: western blot, HEK293T lysate, antibody 1 ug/ml
[3] = molecular target: peptide 4 variant V374A expressed by HEK293T cells (human); assay: western blot, HEK293T lysate, antibody 1 ug/ml
[4] = molecular target: peptide 4 variant E363A expressed by HEK293T cells (human); assay: western blot, HEK293T lysate, antibody 1 ug/ml
[5] = molecular target: peptide 4 variant C375A expressed by HEK293T cells (human); assay: western blot, HEK293T lysate, antibody 1 ug/ml
[6] = molecular target: peptide 4 variant D366A expressed by HEK293T cells (human); assay: western blot, HEK293T lysate, antibody 1 ug/ml
[7] = molecular target: peptide 4 variant G365A expressed by HEK293T cells (human); assay: western blot, HEK293T lysate, antibody 1 ug/ml
[8] = molecular target: peptide 4 variant I372A expressed by HEK293T cells (human); assay: western blot, HEK293T lysate, antibody 1 ug/ml
[9] = molecular target: peptide 4 variant D369A expressed by HEK293T cells (human); assay: western blot, HEK293T lysate, antibody 1 ug/ml
[10] = molecular target: peptide 4 variant A371G expressed by HEK293T cells (human); assay: western blot, HEK293T lysate, antibody 1 ug/ml
[11] = molecular target: peptide 4 variant V362A expressed by HEK293T cells (human); assay: western blot, HEK293T lysate, antibody 1 ug/ml
[12] = molecular target: peptide 4 variant R367A expressed by HEK293T cells (human); assay: western blot, HEK293T lysate, antibody 1 ug/ml
[13] = molecular target: peptide 4 variant G373A expressed by HEK293T cells (human); assay: western blot, HEK293T lysate, antibody 1 ug/ml
[14] = molecular target: peptide 4 variant T368A expressed by HEK293T cells (human); assay: western blot, HEK293T lysate, antibody 1 ug/ml
[15] = molecular target: peptide 4 variant W370A expressed by HEK293T cells (human); assay: western blot, HEK293T lysate, antibody 1 ug/ml
[16] = molecular target: peptide 4 variant E361A expressed by HEK293T cells (human); assay: western blot, HEK293T lysate, antibody 1 ug/ml
[17] = molecular target: T1, MALRD1 peptide TQDSEDDLDWAIGSR; assay: SPR sensorgrams (Response in RU), series 15.625-500 nM
T1 construct: also called MAM and LDL-receptor class A domain-containing protein 1 isoform X1 peptide
T1 peptide: TQDSEDDLDWAIGSR

[18] = molecular target: T2, LDHB peptide VIKLKGYTNWAIGLS; assay: as above
T2 construct: also called l-lactate dehydrogenase B chain (LDHB) isoform X1 peptide
T2 peptide: VIKLKGYTNWAIGLS

[19] = molecular target: T3, BTN1A1 peptide 4 Mutant 9 (D369A) (human); assay: kinetics of peptide on STC43H11-1, separate assay, method not named
T3 construct: The entry already carries the mutation; also called BTN1A1-pep4- Mutant 9
T3 peptide: EVEVGDRTAWAIGVC

[20] = molecular target: T4, BTN1A1 peptide 4 Mutant 11 (A371G) (human); assay: as above
T4 construct: The entry already carries the mutation; also called BTN1A1-pep4- Mutant 11
T4 peptide: EVEVGDRTDWGIGVC

[21] = molecular target: T5, BTN1A1 peptide 4 Mutant 7 (R367A) (human); assay: as above
T5 construct: The entry already carries the mutation; also called BTN1A1-pep4- Mutant 7
T5 peptide: EVEVGDATDWAIGVC

[22] = molecular target: T6, BTN1A1 peptide 4 Mutant 10 (W370A) (human); assay: as above
T6 construct: The entry already carries the mutation; also called BTN1A1-pep4- Mutant 10; mutant peptide #10
T6 peptide: EVEVGDRTDAAIGVC

[23] = molecular target: T7, BTN1A1 peptide 4 Mutant 6 (D366A) (human); assay: as above
T7 construct: The entry already carries the mutation; also called BTN1A1-pep4- Mutant 6; mutant peptide #6
T7 peptide: EVEVGARTDWAIGVC

[24] = molecular target: T8, BTN1A1 peptide 4 Mutant 8 (T368A) (human); assay: as above
T8 construct: The entry already carries the mutation; also called BTN1A1-pep4- Mutant 8
T8 peptide: EVEVGDRADWAIGVC

[25] = molecular target: T9, TRIM11 peptide; assay: as above
T9 peptide: EVEVGDRTSWALGVC

[26] = molecular target: T10, BTN1A1 peptide 4 Mutant 5 (G365A) (human); assay: as above
T10 construct: The entry already carries the mutation; also called BTN1A1-pep4- Mutant 5
T10 peptide: EVEVADRTDWAIGVC

[27] = molecular target: T11, BTN1A1 peptide 4 Mutant 12 (I372A) (human); assay: as above
T11 construct: The entry already carries the mutation; also called Mutant 12 (1372A); BTN1A1-pep4- Mutant 12
T11 peptide: EVEVGDRTDWAAGVC

[28] = molecular target: T12, BTN1A1 Peptide 4 (human); assay: as above
T12 construct: also called BTN1A1-pep4- WT; Pep4
T12 peptide: EVEVGDRTDWAIGVC

B1: STC43H11-1 (antibody, V domains shown)
VH: QSLEESGGRLVTPGGSLTLTCTVSGIDLSSYAMGWVRQAPGEGLEWIGSIGTGGGTGYASWAKGRFTISKTSTTVDLKMTSLTASDTATYFCATSNLWGPGTLVTVSS
VL: QVLTQTASPVSAAVGGTVTINCQASQSVYNNNRCSWFQQKPGQPPKRLIYHTSTLDSGVPSRFKGSGSGTQFTLTISDVQCDDAATYYCLGNYDCSRADCAAFGGGTEVVVK
notes: From immunized New Zealand rabbits; IgG heavy chain and Kappa light chain; also called clone #43H11; Clone 43H11
[1]
  STC43H11-1 Adj. Vol. (Int): -7610
[2]
  STC43H11-1 Adj. Vol. (Int): 480000
[3]
  STC43H11-1 Adj. Vol. (Int): 672000
[4]
  STC43H11-1 Adj. Vol. (Int): 2.61e+06
[5]
  STC43H11-1 Adj. Vol. (Int): 4.8e+06
[6]
  STC43H11-1 Adj. Vol. (Int): -228000
[7]
  STC43H11-1 Adj. Vol. (Int): 2.26e+06
[8]
  STC43H11-1 Adj. Vol. (Int): 4010
[9]
  STC43H11-1 Adj. Vol. (Int): 5470
[10]
  STC43H11-1 Adj. Vol. (Int): 156000
[11]
  STC43H11-1 Adj. Vol. (Int): 7.03e+06
[12]
  STC43H11-1 Adj. Vol. (Int): 1.48e+06
[13]
  STC43H11-1 Adj. Vol. (Int): 19900
[14]
  STC43H11-1 Adj. Vol. (Int): 374000
[15]
  STC43H11-1 Adj. Vol. (Int): 221000
[16]
  STC43H11-1 Adj. Vol. (Int): 1.35e+06
[17]
  binding result: no binding (tested: 500 nM)
[18]
  binding result: no binding (tested: 500 nM)
[19]
  Kd: 39.1 nM
  koff: 0.0101 s⁻¹
  kon: 258000 M⁻¹ s⁻¹
[20]
  Kd: 1.39 nM
  koff: 0.000425 s⁻¹
  kon: 306000 M⁻¹ s⁻¹
[21]
  Kd: 0.339 nM
  koff: 0.000153 s⁻¹
  kon: 453000 M⁻¹ s⁻¹
[22]
  Kd: 4.95 nM
  koff: 0.00106 s⁻¹
  kon: 215000 M⁻¹ s⁻¹
[23]
  Kd: 13.5 nM
  koff: 0.00082 s⁻¹
  kon: 60900 M⁻¹ s⁻¹
[24]
  Kd: 1.77 nM
  koff: 0.000822 s⁻¹
  kon: 464000 M⁻¹ s⁻¹
[25]
  Kd: 621 nM
  koff: 0.1 s⁻¹
  kon: 162000 M⁻¹ s⁻¹
[26]
  Kd: 1.72 nM
  koff: 0.000146 s⁻¹
  kon: 84800 M⁻¹ s⁻¹
[27]
  Kd: 10.6 nM
  koff: 0.000778 s⁻¹
  kon: 73600 M⁻¹ s⁻¹
[28]
  Kd: 0.0844 nM
  koff: 1.62e-05 s⁻¹
  kon: 192000 M⁻¹ s⁻¹
